Laboratory results as given in the DeepSol protein solubility set.

experiment: soluble on expression in E. coli; label from the status in PepcDB or PDB records

Sequence	soluble on expression in E. coli
SARGRKMSKPRAVEAAAAAAAVAATAPGPEMVERRGPGRPRTDGENVFTGQSKIYSYMSPNKCSGMRFPLQEENSVTHHEVKCQGKPLAGIYRKREEKRNAGNAVRSAMKSEEQKIKDARKGPLVPFPNQKSEAAEPPKTPPSSCDSTNAAIAKQALKKPIKGKQAPRKKAQGKTQQNRKLTDFYPVRRSSRKSKAELQSEERKRIDELIESGKEEGMKIDLIDGKGRGVIATKQFSRGDFVVEYHGDLIEITDAKKREALYAQDPSTGCYMYYFQYLSKTYCVDATRETNRLGRLINHSKCGNCQTKLHDIDGVRHLILIASRDIAAGEELLYDYGDRSKASIEAHPWLKH	not soluble
MSLEHAAEILANRYVRGDALTNPDATKEYVRCKLGSYEREVFALLLLDNQNRLIEFKELFQGTVDAASVYPREVVKAVLEVNAAAVIFAHNHPSGDSTPSQADRRITERLKDTLALVDVRVLDHIVTGDTCTSFAERGWLEGHHHHHH	not soluble
MWYTGTGDKGKTKVPSVGEVWKDSEIVKALGDLDELNSVLGVVSSLYPELSEVIQKLQNDIFSISSEIAGFDMNFSDEKVKGIEELITNYSKELEPLRNFVLPGGHIASSFLHLARAVCRRAERSVVTLLKESKAKEVHAKYLNRLSSLLFVLALVVNKRTNNPNVIWRGKD	soluble
MGSDKIHHHHHHMMEEYLGVFVDETKEYLQNLNDTLLELEKNPEDMELINEAFRALHTLKGMAGTMGFSSMAKLCHTLENILDKARNSEIKITSDLLDKIFAGVDMITRMVDKIVSEGSDDIGENIDVFSDTIKSFASSGKEKPSEIKNETETKGEEEHKGESTSNEEVVVLPEEVAHVLQEARNKGFKTFYIKVILKEGTQLKSARIYLVFHKLEELKCEVVRTIPSVEEIEEEKFENEVELFVISPVDLEKLSEALSSIADIERVIIKEVTAVTEESGAEKRTEKEEKTEKTEEKAERKKVISQTVRVDIEKLDNLMDLMGELVIARSRILETLKKYNIKELDESLSHLSRITLDLQNVVMKIRMVPISFVFNRFPRMVRDLAKKMNKEVNFIMRGEDTELDRTFVEEIGEPLLHLLRNAIDHGIEPKEERIAKGKPPIGTLILSARHEGNNVVIEVEDDGRGIDKEKIIRKAIEKGLIDESKAATLSDQEILNFLFVPGFSTKEKVSEVSGRGVGMDVVKNVVESLNGSISIESEKDKGTKVTIRLPLTLAIIQALLVKVNNLVYAIPIANIDTILSISKEDIQRVQDRDVIVIRGEVIPVYRLWEVLQIEHKEELEEMEAVIVRVGNRKYGIVVDDLLGQDDIVIKSLGKVFSEVKEFSGAAILGDGSIALIINVSGIV	not soluble
MGSSHHHHHHGKTIFVIVPTNEEQVAFLEALAKQDELNFDWQNPPTEPGQPVVILIPSDMVEWFLEMLKAKGIPFTVYVEEGGSENLYFQGGGGGGQRHAHDSAVGDKALTHKGRLRLSQNASGSAAGRCGSDDGNDSDQGGVDDDNGGAVGRRRRGAGGVLRRRRPQERGGNARRGGSDGDENSYDGDDAGGIPETDANGVKLTRLQRKKLAKEREREERRQAQEAALEAQRQRMDVNELRDAEAALREEELKAAEEAALQQLRRDKKKAEDEEYAKWVSHIGVEERGELGDEERERQTRMQSFLLDRAAQVQARARRSAAGAKSSPSEEECIHVLILQTAARDLKVSVEELVSTIEQLSQVDKVHGVFDDRGKYVFIAPEQFPLLAQFIRLRGRVSVQEFTRECNRVVMQS	soluble
MQVIIISGLSGSGKSIALKVLEDSGYYCVDNLPASLLVVLINHLQTQQHAYVAVAIDMRSGENITVLPWQLKMIDKSIQIKFIFLEARTETLMQRFSETRRRHPLSDKNITLEEAIRREREALATLTGLGHHIDTSSLRPNVLRAFIKDFIADSRSPSQLTLLFQSFGYKHGIPLDADLVFDIRCLPNPFYDPQLKELTGHDPEVIRFMESQPDASKMLRDISSFLGTWLPAYIRDNRAYLTVAIGCTGGQHRSVYFAEKLALHFHDSAHVLVRHRGLAEYKPHYARR	not soluble
MGLELEWMPIEDLKLPSNVIEIIKKRGIKKLNPPQTEAVKKGLLEGNRLLLTSPTGSGKTLIAEMGIISFLLKNGGKAIYVTPLRALTNEKYLTFKDWELIGFKVAMTSGDYDTDDAWLKNYDIIITTYEKLDSLWRHRPEWLNEVNYFVLDELHYLNDPERGPVVESVTIRAKRRNLLALSATISNYKQIAKWLGAEPVATNWRPVPLIEGVIYPERKKKEYNVIFKDNTTKKVHGDDAIIAYTLDSLSKNGQVLVFRNSRKMAESTALKIANYMNFVSLDENALSEILKQLDDIEEGGSDEKELLKSLISKGVAYHHAGLSKALRDLIEEGFRQRKIKVIVATPTLAAGVNLPARTVIIGDIYRFNKKIAGYYDEIPIMEYKQMSGRAGRPGFDQIGESIVVVRDKEDVDRVFKKYVLSDVEPIESKLGSERAFYTFLLGILSAEGNLSEKQLENFAYESLLAKQLVDVYFDRAIRWLLEHSFIKEEGNTFALTNFGKRVADLYINPFTADIIRKGLEGHKASCELAYLHLLAFTPDGPLVSVGRNEEEELIELLEDLDCELLIEEPYEEDEYSLYINALKVALIMKDWMDEVDEDTILSKYNIGSGDLRNMVETMDWLTYSAYHLSRELKLNEHADKLRILNLRVRDGIKEELLELVQISGVGRKRARLLYNNGIKELGDVVMNPDKVKNLLGQKLGEKVVQEAARLLNRFH	soluble
MSQFISLTQYQLIEVQGADAEKYLQGQLTSDVVRLASGATTLTAHCDPKGKMNAIYRLFKVSSEQFFLLVKKDILPSGLDALKKYAVFSKVSFDLRDWQIIGVIGEKCGKITPNFSLEIDEKRSILLNETELPVNFNGDEKIWEVADIQAGLPNLSPQTQNEFIPQALNLQAIEQAISFTKGCYIGQETVARAKYRGANKRAMFIFKVQTQQEAEIGSEIEMQLEANWRKTGTITSAVNLDGVLWLQVVMNNDIDSEQQFRLLNSEILLERVQLPYSITELEHHHHHH	soluble
MGSDKIHHHHHHMLASDLLVIDFAQKDDVLKLYPEAPLLSSDKAQWDGIQLQYHRHPPHQLSENHSKQHRIIIHDRSPSPPMVEEMIEHRFQKRQFGYGDVTVVPADVLNSAYWNTEYEFITLSFEARTFARHTFDLTTATDIELVPSFSKPDQLIYSLGFALKSELESSGVGSRLYIDSLTAALMTHLLRHYSAQRSISRPQSGLAKCQLQKVIDFINQNLEQDLALAELAAIVQMSPSYFSTLFKHSTGLAPHQYVIQCRVDRAKQLLRQSNLTIAEIAYSLGFTHQSHLSRHFKRLVGVSPKVFIKSQ	not soluble
MGSDKIHHHHHHMTQQTDLQSKTNIDPLAMNDSFLAAADALAVDPMFGIPANVREVIARRGNATRLVILGTKGFGAHLMNVRHERPCEVIAAVDDFRYHSGELYYGLPIISTDRFTELATHDRDLVALNTCRYDGPKRFFDQICRTHGIPHLNFEQAVRAFGLQGNVDYRVDDWGADIVRNIPAFQTLAQRLADDYSVQTLYAVLNFHLTCEPEYYHEVERPYSTLYFRSGLLRFSDSEKMVDCGASIGESLAGLIGVTKGKFERVWMIEPDRINLQTLQNVLRRYTDTNFASRITVHGCGAGENTIRVPFNHEGGHGGFVKPADADHEPADLIDVRPIDDIIDDAPTFIKMDIEGSELSALKGARRAISEHKPKLAISAYHRSTDLLDLTNYILSIRPDYQIGLRHHTPDRWDTCLYFY	not soluble
MGSDKIHHHHHHMTRLAIVRQKYNPAGGAERFVSRALAALRDKGELEVSLIARRWEPVEGVKAYQVDGPYLGNVWRDWSFARKARRIWLREGFDLVQSHERIPGCDVYRAGDGVHRRWLQLRRQGMSAWGRFVLWCNPYHHYIQRAESEMFHHPRLKRVICNSQMVKREIQQYFGLSDQQIVVIYNGVDLQSFHPGLRSEHRQAMRSQWGVPGDAPLLLYVGSGFERKGVARALKALQANPGAWLMVVGGDKRLARYRRLADELGVDARVVFAGAQGEVRPFYGMADAFILPTLYDPFPNVCVEALASGLPVLTTRQCGAAEFVRQGENGWVCDAFDEEALARSVAEWLSVSRNWPVLAEAARRSVEGLSLGAMAERMLNCYRDLLSVSAVA	not soluble
